Laboratory results taken from US20080311122A1, “Antagonists of Hmgb1 and/or Rage and Methods of Use Thereof” (Medimmune, LLC, priority 2005, published 2008).
“Also recorded” adds a separate entry of the source.

Legend:
[1] = tested on: HMG1 induced TLR4 activation; experiment: TLR4 activation assay (NF-κB luciferase reporter, 293 cells); assay type: cell-based, human
Procedure: TLR4 Activation Assay: HuTLR4 and CD14 stably expressed 293 cells (Invitrogen) were seeded in a 96 well plate at 2×10^4/well in 100 μl of DMEM with 10% FCS overnight. Cells were then transfected with NF-κB/Luc (Stratagene) luciferase reporter construct as indicated by the kit for 24 hr. A mixture of HMGB1 and anti-HMGB1 was added to cells at 100 μl/well overnight. The luciferase activity was then measured to reflect TLR4 activation (Promega).

[2] = tested on: HMG1 stimulated cytokine gene expression in mouse macrophages; experiment: Taqman analysis of mouse macrophages (mMØ) stimulated with HMG1; assay type: cell-based; conditions: rHMG1
Procedure: Taqman Analysis of Mouse Macrophages (mMØ) Stimulated with HMG1: Mouse bone marrow was harvested by rinsing the femurs of normal C57BL/6 mice. The isolated bone marrow cells were then cultured in Dulbecco's modified Eagle's medium (DMEM) supplemented with 10% fetal bovine serum (FBS) and 50 ng/ml M-CSF for 24 h, nonadherent cells were collected and grown for 6 days in complete DMEM supplemented with 10% FBS and 50 ng/ml M-CSF in T-75 flasks (1×10^7 cells/15 ml/flask). On day 6, adherent cells were harvested and reseeded with 5 ng/ml MCSF in α-MEM containing 10% FBS in 96-well plates (1×10^5 cells/200 μl/well) overnight.
The culture medium was replaced with α-MEM and incubated for 2 hours before stimulation to starve cells. HMGB1 (recombinant CBP-HMGB1 fusion protein generated from E. coli at 10 μg/ml), mouse-RAGE-Fc or human-RAGE-Fc fusion protein were pre-mixed with various blocking reagents at 100 μg/ml in α-MEM for 20 min at RT, then 100 μl of the mixtures was added to the cells and incubated at 37° C. for 2 hours. The supernatant was then removed, and the RNA was extracted using Ambion's MagMAX™-96 Total RNA Isolation Kit. All of the recovered RNA were used in a reverse transcriptase (RT) reaction with SuperScript™ III and oligo(dT) primer (Invitrogen) for synthesis of cDNA. 1 μl or 2 μl of the resulting cDNA was used for real time quantitative PCR analysis (TaqMan) using ABI Prism 7700 or 7000.

[3] = tested on: HMG1 enhancement of PAMP stimulation; experiment: Inhibition of the enhancement of PAMP stimulation by HMG1 (Table 1 summary); assay type: cell-based; conditions: PAMP used and cytokine assayed are indicated
Procedure: Inhibition of HMG1 Mediated Enhancement of TLR Signaling: Human PBMCs were treated with Tx-HMGB1+LPS (as described above) in combination with either the Anti-HMG1 antibody E11, S16 or G4, anti-TLR4 antibody, or isotype control antibodies (R3, IgG2a) and incubated overnight at 37° C., 5% CO2 in the presence of 8 U/mL Polymyxin B. The supernatants were assayed for cytokine levels (FIG. 22, right panel).
Inhibition of HMG1 Mediated Enhancement of TLR Signaling: Freshly isolated bone marrow cells were stimulated with TLR9 ligand CpG2216 (0.3 μM) and thymus HMGB1 (10 μg/mL) in the presence of different concentration of the anti-HMGB1 mAb E11 or control human IgG for 24 hr and IFN-a in the supernatant was measured by ELISA. CpG2216, HMGB1 and nonstimulatory DNA were used alone or in combination as controls for the assay.

[4] = tested on: THP-1 cells; experiment: HMG1 binding to THP-1 cells; parameters: species or system human
Procedure: HMG1 binding to THP-1 Cells: Recombinant rat HMGB-1 was labeled using Eu-labelling Kit from PerkinElmer. Molar ratio of HMGB-1 to Eu is 1:5. THP-1 were cultured as the protocol from ATCC. Cells were harvested and suspended at concentration 1×10^6/ml in assay buffer containing 1×DELFIA L*R binding buffer (PerkinElmer), 50% of DELFIA stabilizer (PerkinElmer) and 0.05% of sodium azide. 100 μl of cells (1×10^5) was added into wells in 96 well cell culture plate. The plate was incubated with gentle shaking at 4° C. for one hour. 100 μl of assay buffer containing 2 nM of Europium-labeled HMGB-1 mixed with various concentrations (333, 166.5, 83.25, 41.6, 20.8, 10.4 and 5.2 nM) of human anti-HMGB1 antibodies E11 or G2 or soluble human RAGE-Fc, were added into each wells respectively. After one hour incubation with gentle shaking at 4° C., the cells were washed four times with 1×L*R wash buffer (PerkinElmer) by centrifuging at 1200 rpm×5 min. 200 μl of enhancement solution was added into each well to dissociate and enhance Eu fluorescence at 615 nm. The fluorescence was measured with Wallac Victor Fluorometer. Assay was performed in triplicate and human antibody R3-47 was used the negative isotype control.

[5] = tested on: HMG1 peptides; experiment: HMG1 B Box and peptide mapping ELISA; assay type: binding; conditions: overlapping HMGB1 peptides
Procedure: HMG1 B Box and Peptide Mapping: Individual wells of a 96-well immunoplate (EIA/RIA plate, High binding, Costar) were coated with HMG1 B Box peptide amino acids 91-169 (FIG. 5A) or amino acids 150-183 (FIG. 5B) at 10 μg/ml in PBS at 4° C. overnight. The plate was then blocked with 4% milk powder dissolved in PBS at 37° C. for 1 hour. The blocking solution was removed and replaced with human anti-HMG1 antibodies at various concentrations (see FIGS. 5A-B). The plate was then washed (ELX-405 Plate washer, BIO-TEK) and secondary antibody (anti-human IgG-HRP, PIERCE) was added at a final concentration of 1:125,000 at 37° C. for 1 hour. HRP activity was detected with Sureblue HRP substrate (KPL). Plates were read at 450 nm using a Kinetic Microplate Reader (Molecular Devices). To obtain more detailed peptide mapping information, similar ELISA assays were performed using 16 biotinylated overlapping peptides spanning the HMGB1 protein from amino acid 1 to 215 as follows, maxisorp microtiter plate was coated with 2 μg/ml of NeutroAvidin (Pierce) overnight at 4° C. After washing and blocking with 1% BSA in PBS, the biotinylated peptides were individually added into the avidin coated wells and incubated for 30 min at room temperature. The serial diluted antibody G4, S16 and S6 at the initial concentration at 10 μg/ml were then transferred into the wells followed by adding mouse anti human IgG-HRP conjugate (Pierce). Detection was accomplished by adding 50 μl of tetramethylbenzidine (TMB) substrate (KPL) and the absorbance was read at […]. The peptides used were amino acids: 46-63; 61-78; 76-93; 91-108; 106-123; 136-153; 151-168; 166-183; 179-185; 181-198; and 196-215.

Molecule | block of HMG1 induced TLR4 activation [1] | inhibition of HMG1-induced IL-1β gene expression [2] | Inhibition of Synergy (PAMP/Cytokine) [3] | block of HMG1 binding to THP-1 cells [4] | detailed peptide mapping / domain recognized [5] | inhibition of HMG1-induced TNF-a gene expression [2]
E11: human anti-HMG1 antibody, recognizes HMG1 A-Box; VL/VH aa SEQ ID NO: 24/26 (antibody, listed as Homo sapiens, V domains shown) VH: EVQLLESGGGLVQPGGSLRLSCAASGFTFSRYQMNWVRQAPGKGLEWVSSISPSGGHTHYADSVKGRFTISRDNSKNTLYLQMNSLRAEDTAVYYCAKDGRQGKISTVDHWGQGTLVTVSS VL: AQDIQMTQSPGTLSLSPGERATLSCRASQSVRSNFLAWYQQKPGQAPRLLIYGASRRASGIPDRFSGSGFGADFTLSISRLEPEDFAVYYCQQYGSSPNTFGQGSRVEIK | able to inhibit HMG1 activation of TLR4; also recorded: significant ability to block HMG1 induced TLR4 activation | significantly reduce HMG1-induced IL-1b gene expression; also recorded: robustly inhibited | CpG/IFN-a, LPS/IL-6 | block the binding of HMG1 to THP-1 cells | recognizes the HMG1 A-Box | –
S16: human anti-HMG1 antibody, ATCC PTA-6259; VL/VH aa SEQ ID NO: 13/15 (antibody, listed as Homo sapiens, V domains shown) VH: EVQLLESGGGLVQPGGSLRLSCAASGFTFSWYSMLWVRQAPGKGLEWVSYISPSGGFTNYADSVKGRFTISRDNSKNTLYLQMNSLRAEDTAVYYCARWDYNSGWYYDHWGQGTLVTVSS VL: AQDIQMTQSPDTLSLSPGERATLSCRASQSVNSRNLAWYQQKPGQAPRLLIYGASTRATGIPDRFSGSVSGTEFTLTISSLQPDDFATYYCQQYNSYFTFGQGTKLEIK | – | – | LPS/IL-6 | – | strongest binding to the B-box peptide 91-108 with lesser binding to peptides 166-183 and 179-186; also recorded: binds the B-box peptide 91-108 and to a lesser extent peptides 166-183 and 179-186 | –
G2: human anti-HMG1 IgG1 from Fab phage display library; VL/VH aa SEQ ID NO: 30/32 (antibody, listed as Homo sapiens, V domains shown) VH: EVQLLESGGGLVQPGGSLRLSCAASGFTFSWYKMQWVRQAPGKGLEWVSGISPSGGSTAYADSVKGRFTISRDNSKNTLYLQMNSLRAEDTAVYYCAKMGLFNTGNSYVDYWGQGTLVTVSS VL: AQSELTQPPSVSEAPGQRVTISCSGSTSNIGNNAVIWYQQLPGKAPKLLIYYDDLLPSGVSDRFSGSKSGTSGSLAISGLQSEDEADYYCASWDDNLNGPLFGGGTKLTVL | – | significantly reduce HMG1-induced IL-1b gene expression; also recorded: robustly inhibited | – | block the binding of HMG1 to THP-1 cells | – | significantly reduce HMG1-induced TNF-α gene expression; also recorded: robustly inhibited
G20: human anti-HMG1 antibody; VL/VH aa SEQ ID NO: 46/48 (antibody, listed as Homo sapiens, V domains shown) VH: EVQLLESGGGLVQPGGSLRLSCAASGFTFSWYDMFWVRQAPGKGLEWVSWISPSGGYTKYADSVKGRFTISRDNSKNTLYLQMNSLRAEDTAMYYCARSGLDYYDSSGYLDAFDIWGQGTMVTVSS VL: AQDIQMTQSPSSVSASVGDRVTITCRASQDVSIWLAWYQQKPGKAPKLLIFGASRLQSGVPSRFSGSRSGADFTLTIDSVQPEDFASYYCQQADSFPLTFGGGTKVEIK | able to inhibit HMG1 activation of TLR4 | – | – | – | – | –
